Results published in PMC8092592, “A nanobody toolbox targeting dimeric coiled-coil modules for functionalization of designed protein origami structures” (Proceedings of the National Academy of Sciences of the …, 2021).

Key:
Conditions in all cases: both partners purified
[1] = target: T1, preformed Nb28_2-APH2 complex (llama, N-terminus acetylated; C-terminus amidated); test: ITC; nanobody in the syringe titrated into the cell with TET12SN or a tetrahedron variant (2-5 µM), CC peptide dimer (5-10 µM) or a complex preformed by a first titration; MicroCal VP-ITC, 25 °C; 20 mM sodium phosphate pH 7.0, 150 mM NaCl; independent binding sites model (SEDPHAT), errors by Monte-Carlo
T1 construct: peptide APHshSN, as Dm8; Nb28, as Dm3; source: formed in the ITC cell by a first titration of Nb28 into APH2; copies: 2 + 2

[2] = target: T2, APH2, antiparallel homodimeric coiled coil of the synthetic peptide APHshSN (N-terminus acetylated; C-terminus amidated); test: as above
T2 construct: designed peptide APH (full name APHshSN); also called APH peptide pair; source: synthetic peptide, bought: ProteoGenix
T2 peptide: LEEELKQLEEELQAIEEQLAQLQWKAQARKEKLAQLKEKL

[3] = target: T3, antiparallel homodimeric APH coiled-coil (APH2), isolated peptide dimer (synthetic construct (designed peptide …)); test: crystal structure; crystals of nanobody-CC dimer complexes, solved by molecular replacement
T3 construct: residues named in the text: E4, L8, I15, Q18, Q21, L22, W24, K25, R29; also called APH CC; APH2 peptide; source: synthetic peptide
T3 chain: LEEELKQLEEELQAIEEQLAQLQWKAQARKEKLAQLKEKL

[4] = target: T3, antiparallel homodimeric APH …; test: ITC; nanobody titrated into the CC peptide dimer, the origami protein or a preformed nanobody-target complex; conditions in SI Appendix
[5] = target: T2, APH2, antiparallel homodimeric coiled …; test: ITC; titrations at 18, 25 and 32 °C fitted globally (independent binding sites, temperature-independent heat capacity); parameters reported at 25 °C; 20 mM sodium phosphate pH 7.0, 150 mM NaCl
[6] = target: T4, preformed Nb30_2-APH2 complex (llama, N-terminus acetylated; C-terminus amidated); test: ITC; nanobody in the syringe titrated into the cell with TET12SN or a tetrahedron variant (2-5 µM), CC peptide dimer (5-10 µM) or a complex preformed by a first titration; MicroCal VP-ITC, 25 °C; 20 mM sodium phosphate pH 7.0, 150 mM NaCl; independent binding sites model (SEDPHAT), errors by Monte-Carlo
T4 construct: peptide APHshSN, as Dm8; Nb30, as Dm5; source: formed in the ITC cell by a first titration of Nb30 into APH2; copies: 2 + 2

B1: nanobody Nb30 (VHH)
VHH: QVQLQESGGGLVQPGGSLRLSCAASGSIFSDNDMGWYRQPPGKQREWVATITYDHVTWYADSVKGRFAISRDNAKNTVYLQMNDLKPEDTAVYYCNAVPGRRGSWGQGTQVTVSS
notes: no cleavage of the His6 tag is described; also called Group 10 (Nb30); source: E. coli WK6, periplasmic extract, purified (Ni2+-NTA, SEC)
[1]
  Kd: 55 ± 4.2 nM
  stoichiometry N: 2 nanobody per complex (cell:syringe)
[2]
  Kd: 710 ± 58 nM
  stoichiometry N: 2 nanobody per APH2 dimer (cell:syringe)

B2: nanobody Nb30 (VHH)
VHH: QVQLQESGGGLVQPGGSLRLSCAASGSIFSDNDMGWYRQPPGKQREWVATITYDHVTWYADSVKGRFAISRDNAKNTVYLQMNDLKPEDTAVYYCNAVPGRRGSWGQGTQVTVSS
notes: selected by phage display from a llama immunised with TET12SN; construct and tags are in SI Appendix, Materials and Methods; source: E. coli, recombinant, produced and isolated according to standard procedures
[3]
  stoichiometry N: 2 nanobodies per APH2 dimer (printed 2:2 nanobody:CC peptide)

B3: nanobody Nb26 (VHH)
VHH: QVQLQESGGGLVQAGDSLRLSCAASGRTFSTYPMGWFRQAPGKEREFVAASSSRAYYADSVKGRFTISRNNAKNTVYLQMNSLKPEDTAVYYCVADSSPYYRRYDAAQDYDYWGQGTQVTVSS
notes: no cleavage of the His6 tag is described; also called Group 1 (Nb26); source: E. coli WK6, periplasmic extract, purified (Ni2+-NTA; some nanobodies also SEC)
[2]
  stoichiometry N: 2 nanobody per APH2 dimer (cell:syringe)

B4: nanobody Nb26 (VHH)
VHH: QVQLQESGGGLVQAGDSLRLSCAASGRTFSTYPMGWFRQAPGKEREFVAASSSRAYYADSVKGRFTISRNNAKNTVYLQMNSLKPEDTAVYYCVADSSPYYRRYDAAQDYDYWGQGTQVTVSS
notes: as for B2
[3]
  stoichiometry N: 2 nanobodies per APH2 dimer (printed 2:2 nanobody:CC peptide)
[4]
  Kd: 39 nM
  dH: -28 kcal ⋅ mol^−1

B5: nanobody Nb49 (VHH)
VHH: QVQLQESGGGLVQPGGSLRLSCIASGRTFNPYGMGWFRQVPGKERTFVSGITWIGGTTYYVNSVKGRFTISRDRAKNTVYLQMNSLKPEDTAVYYCAADKDNTGYNYWGQGTQVTVSS
notes: no cleavage of the His6 tag is described; also called Group 4 (Nb49); source: E. coli WK6, periplasmic extract, purified (Ni2+-NTA; some nanobodies also SEC)
[2]
  stoichiometry N: 2 nanobody per APH2 dimer (cell:syringe)

B6: nanobody Nb49 (VHH)
VHH: QVQLQESGGGLVQPGGSLRLSCIASGRTFNPYGMGWFRQVPGKERTFVSGITWIGGTTYYVNSVKGRFTISRDRAKNTVYLQMNSLKPEDTAVYYCAADKDNTGYNYWGQGTQVTVSS
notes: as for B2
[3]
  stoichiometry N: 2 nanobodies per APH2 dimer (printed 2:2 nanobody:CC peptide)
[4]
  Kd: 570 nM

B7: nanobody Nb28 (VHH)
VHH: QVQLQESGGGLVQPGGSLRLSCAAPGFRLDNYVIGWFRQAPGKEREGVSCISSSAGSTYYADSVKGRFTISRDNAKNTVYLQMNSLKPEDTAVYYCATACYSSYVTYWGQGTQVTVSS
notes: no cleavage of the His6 tag is described; also called Group 8 (Nb28); source: E. coli WK6, periplasmic extract, purified (Ni2+-NTA; some nanobodies also SEC)
[5]
  Kd: 94 ± 7.5 nM
  stoichiometry N: 2 nanobody per APH2 dimer (cell:syringe)
[6]
  Kd: 23 ± 1.7 nM
  stoichiometry N: 2 nanobody per complex (cell:syringe)
[2]
  Kd: 140 ± 10 nM
  stoichiometry N: 2 nanobody per APH2 dimer (cell:syringe)

B8: nanobody Nb28 (VHH)
VHH: QVQLQESGGGLVQPGGSLRLSCAAPGFRLDNYVIGWFRQAPGKEREGVSCISSSAGSTYYADSVKGRFTISRDNAKNTVYLQMNSLKPEDTAVYYCATACYSSYVTYWGQGTQVTVSS
notes: as for B2
[3]
  stoichiometry N: 2 nanobodies per APH2 dimer (printed 2:2 nanobody:CC peptide)
